For 84 variants, reverse-splicing fitness results are on record in the RNAGym collection of RNA variant scans (doi:10.1093/molbev/msab373).

B1: Azoarcus group I ribozyme (parent)
chain: GUGCCUUGCGCCGGGAAACCACGCAAGGGAUGGUGUCAAAUUCGGCGAAACCUAAGCGCCCGCCCGGGCGUAUGGCAACGCCGAGCCAAGCUUCGGCGCCUGCGCCGAUGAAGGUGUAGAGACUAGACGGCACCCACCUAAGGCAAACGCUAUGGUGAAGGCAUAGUCCAGGGAGUGGCGAAAGUCACACAAACCGG

The variants in the data set derive from B1. Kind of data set: reverse-splicing fitness (ratio to wild type); higher = more active; in vitro selection; Mg2+ level not given. The essentials: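 An in vitro group I ribozyme library with randomized positions was T7-transcribed and gel-purified. In triplicate, 10 pmol RNA in EPPS pH 7.5 was reacted with 50 pmoles of a 30-nt RNA substrate for 1 h at 37 °C across several added MgCl2 levels (1–48 mM), then stopped with EDTA. Products were reverse transcribed from a substrate-complementary primer, PCR-amplified and sequenced (HiSeq 4000). Fitness is a variant's read proportion after selection over that before, normalised to wild type.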
As for C82U A120U C150A C169U U176G, the reverse-splicing fitness came out at 0.00201.
Take C82U A120U C150A C169U U176C: the reverse-splicing fitness was found to be 0.00331.
With A111C A120C A145G C150G U176A, the reverse-splicing fitness was 0.0158.
For the variant A111C A145G C169U U176C, the reverse-splicing fitness worked out at 0.0294.
In the case of C82A A111U A120C A145G C169U it was 0.0142; in that of C82A A120U A145U C150U C169A U176C, 0.00272.
Consider C82A A111G A145G C150G C169U U176C, for which the reverse-splicing fitness was found to be 0.0123.
For A111C A120C A145G U176C, the reverse-splicing fitness was determined as 0.203.
As for C82U A120C C169U U176G, the reverse-splicing fitness was determined as 0.00414.
As for A120C A145U C150G U176A, the reverse-splicing fitness was 0.137.
In the case of C82A A120G A145C, the reverse-splicing fitness was determined as 0.0202.
In the case of C82A A111G A120G C150G U176G, the reverse-splicing fitness was found to be 0.00346.
As for C82G A111C A120G A145U C150G C169A U176A, the reverse-splicing fitness was 0.00957.
Next, C82A A111C A145U C150A: 0.0227; C82U A111U A120C A145U C150U C169U U176C: 0.0157.
In the case of C82U A111G A145C C169U U176A it was 0.0108; in that of A111U C150A U176G, 0.0846.
Regarding C82U A120U A145U C150A C169U U176A, the reverse-splicing fitness is 0.0025.
Turning to C82G A111G A120C C150A, the reverse-splicing fitness is 0.0154.
Consider A111C A120U A145C C150G C169A U176C, for which the reverse-splicing fitness amounted to 0.00297.
As for C82G A111U A145G C150U C169A U176A, the reverse-splicing fitness was determined as 0.0163.
Next, C82U A111G A120G A145G C150G C169U U176C: 0.0105; C82G A111C A145U C150G C169G U176C: 0.00714.
In the case of C82U A111G A120U A145U C169U U176A it was 0.00252; in that of C82G A111G A145C C150G C169A U176G, 0.00615; in that of C82G A111U A120C A145G C150G C169U U176A, 0.0139.
With C82U A111U A120U C150G C169G U176C, the reverse-splicing fitness stood at 0.00263.
With C82A A111G A120G C150G C169G U176G, the reverse-splicing fitness amounted to 0.00489.
In the case of C82G A111C A120U A145C C169U U176A, the reverse-splicing fitness turned out to be 0.00293.
For C82A A111U A120C A145G C150G C169G, the reverse-splicing fitness worked out at 0.00768.
Next, C82U A111G A120G C150G C169U U176A: 0.0121; C82G A111U A145G C150U C169U U176G: 0.00638.
In the case of A111G A120C A145U C150U U176C it was 0.357; in that of C82A A111C A120U A145U C150A C169A U176A, 0.00258.
Regarding C82A A111G A120U A145U C150A, the reverse-splicing fitness turned out to be 0.00648.
In the case of C82G A111U A120G C150G U176G it was 0.00354.
As to A111C A120U A145G C169G U176G, the reverse-splicing fitness amounted to 0.00174.
For A111C A120G A145U C150U U176G, the reverse-splicing fitness was found to be 0.00526.
C82A A111U A120U C169A: the reverse-splicing fitness was 0.00416.
C82A A111G A120U A145U C150G C169A U176A: the reverse-splicing fitness stood at 0.0039.
A111C A145C C150A U176G: the reverse-splicing fitness was 0.0323.
In the case of C82G A111U A120U A145U C150G, the reverse-splicing fitness stood at 0.00782.
With C82A A111U A120G A145U U176C, the reverse-splicing fitness worked out at 0.0145.
As for C82G A145C C150U C169U U176G, the reverse-splicing fitness was 0.00436.
With C82G A111G A120C C150G U176C, the reverse-splicing fitness was 0.0121.
Take C82U A111U A120G C150A U176G: the reverse-splicing fitness was found to be 0.00633.
With C82A A120C A145C C150A, the reverse-splicing fitness stood at 0.0144.
In the case of A111G A120G A145C C150U C169U U176C it was 0.0306; in that of C82A A120U C150G U176C, 0.00779.
In the case of C82U A111U A120U A145G C150A C169G U176A it was 0.00789; in that of C82U A111U A120G A145G C150A C169G U176C, 0.0253.
As for C82U A145C C150U C169U U176C, the reverse-splicing fitness is 0.00673.
Consider C82A A111U A120U C169A U176G, for which the reverse-splicing fitness was 0.00243.
Regarding C82G A111C A120C C150U U176C, the reverse-splicing fitness was 0.0226.
Regarding C82G A111G A145U C150A U176G, the reverse-splicing fitness is 0.0136.
On to C82U A120C A145G C150U U176C, for which the reverse-splicing fitness amounted to 0.0637.
Consider C82G A111C A120U A145G C150U, for which the reverse-splicing fitness is 0.0408.
In the case of A111C A120C A145C C169A it was 0.00953.
With C82G A111C A120G A145G C150A U176A, the reverse-splicing fitness was found to be 0.00974.
Next, A111U C150G C169U U176C: 0.0145.
In the case of A111G A120U A145U C150G C169A U176C it was 0.00355; in that of A111C C150A C169G, 0.0124.
As for A120U C150U C169A U176G, the reverse-splicing fitness came to 0.00183.
Next, C82A A111C A120C C150G C169U U176C: 0.0102; C82A A111G A120U A145G C150U C169A U176A: 0.00727; C82U A145U C150A C169A: 0.00771.
As for C82U A111G A120G A145C C150U C169G U176A, the reverse-splicing fitness was found to be 0.0203.
As to A120C A145U, the reverse-splicing fitness is 0.886.
In the case of C82U A111G C150A C169G U176A, the reverse-splicing fitness is 0.0207.
With A111C A120U A145G C150G C169U, the reverse-splicing fitness stood at 0.0135.
Take C82G A145G C150G C169A: the reverse-splicing fitness was 0.00944.
As to C82G A111U C169A, the reverse-splicing fitness came out at 0.00938.
C82A A120C C150A C169A U176G: the reverse-splicing fitness was 0.00801.
Consider A111U A120C C150G, for which the reverse-splicing fitness was 0.0482.
Turning to C82G A111U A120C A145C C169A U176G, the reverse-splicing fitness was 0.00544.
C82G A111U A120C A145C C169A U176C: the reverse-splicing fitness is 0.00941.
With C82G A111C A120U A145U C169U U176C, the reverse-splicing fitness was 0.00318.
In the case of C82G A111U A120C A145U C150G C169U U176C it was 0.0123; in that of C82A A111C A120C A145U C150U C169U U176A, 0.0135; in that of C82G A111U A145G C150G U176A, 0.0137.
Consider C82G A111G A120C C150A C169G U176C, for which the reverse-splicing fitness came to 0.0218.
As to A111C A120U C150U C169U U176G, the reverse-splicing fitness was 0.00319.
In the case of C82A A120G A145G C150G C169U U176A it was 0.0129.
For the variant C82G A111U A120C A145U C150A C169U U176C, the reverse-splicing fitness came out at 0.0141.
